Results on 7 molecules are retold here after patent US20230190924A1, “ANTIGEN OF ALLERGY AND EPITOPE THEREOF” (HOYU CO., LTD., priority 2017, published 2023).

Entries after “also recorded” stand apart in the source; their conditions may differ.

Test [1] has as its system IgE antibodies in serum. The test is described as follows: ELISA of Fmoc-synthesised peptides with patient serum. It is filed as binding, human. The conditions noted are these: serum of cases having food allergies to chicken egg and soybean in combination. The method, then: The peptides of the aforementioned SEQ ID NOs were prepared by the Fmoc method and studied for their binding activity against IgE antibodies in serum by ELISA. On the basis of RXRXXKXX (SEQ ID NO: 329), the peptides of chicken egg RGREDKMK and soybean RFREDKEE were prepared, and their binding activity against IgE antibodies were confirmed by ELISA using the serum of cases having food allergies to chicken egg and soybean in combination.
(In an ELISA, binding on a coated surface is turned into a signal by an enzyme label.)

Test [2] has as its system IgE antibody in the serum of an egg allergic patient. The test is described as follows: Immunoblotting of two-dimensional electrophoresis of chicken egg (raw egg) yolk proteins with patient serum. The settings on record: for specific reaction/binding of serum IgE with spot in immunoblot: serum of egg-allergic patient 1 (food-dependent exercise-induced anaphylaxis), versus non-egg-allergic serum. It counts as binding, human. How it is done: Identification of antigens by immunoblotting was carried out by taking all the steps up to the step of “Second-dimensional SDS-PAGE” as described above in Example 1, followed by the steps of “Transfer to membrane”, “Immunoblotting” and “Analysis” as described below.
Transfer to membrane was done using the following transfer system and transfer buffer. • Transfer system: XCell SureLock Mini-Cell and XCell II Blot Module (produced by Life Technologies) • Transfer buffer: NuPAGE Transfer Buffer (X20) (produced by Life Technologies), used in a form diluted 20-fold with milliQ water.
To be specific, proteins in the two-dimensional electrophoresis gels were transferred to a membrane (PVDF membrane) according to the following procedure.
(1) The PVDF membrane was immersed in 100% methanol followed by milliQ water, and then moved into the transfer buffer to hydrophilize the PVDF membrane.
(2) After sponge, filter paper, gels treated by second-dimensional SDS-PAGE, the hydrophilized PVDF membrane, filter paper, and sponge were put in place in this order, the transfer system was energized at a constant voltage of 30 V for one hour.
Immunoblotting of the membrane was carried out using, as a primary antibody, a serum sample from patient (patient 1) with an egg allergy or a serum sample from a non-egg-allergic subject. This egg-allergic patient was a patient diagnosed with food-dependent exercise-induced anaphylaxis (FDEIA) caused by chicken eggs.
Immunoblotting of the membrane was carried out according to the following procedure. • (1) The transferred membrane was shaken in a 5% skim milk/PBST solution (a PBS buffer containing 0.1% Tween 20 nonionic surfactant) at room temperature for one hour. • (2) The membrane was left to stand in a solution of 5% primary antibody serum in 5% skim milk/PBST at room temperature for one hour. • (3) The membrane was washed with a PBST solution (5 min.×3 times). • (4) The membrane was left to stand in a 1:5000 dilution of the secondary antibody, anti-human IgE-HRP (horseradish peroxidase), with a 5% skim milk/PBST solution at room temperature for one hour. • (5) The membrane was washed with a PBST solution (5 min.×3 times). • (6) The membrane was left to stand in Pierce Western Blotting Substrate Plus (produced by Thermo) for 5 minutes. […]
The immunoblots obtained with the serum from the egg-allergic patient were compared with those obtained with the control serum from the non-egg-allergic subject. By immunoblotting of the proteins contained in the raw yolk using the serum from the egg-allergic patient (FIG. 2), three spots were detected, which are different from the spots detected when the serum of the non-egg-allergic subject was used and different from those of the known chicken egg allergen proteins.
Identification of antigens by immunoblotting was carried out using the sera of three other egg-allergic patients (patient 2, patient 3 and patient 4) in the same manner as in Example 2. By immunoblotting of the proteins contained in the raw yolk using the serum from the egg-allergic patients (FIG. 4 for patient 2, FIG. 5 for patient 3, and FIG. 6 for patient 4), spots were detected, which are different from the spots detected when the serum of the non-egg-allergic subject was used and different from those of the known chicken egg allergen proteins. To be specific, spots 4 to 8 for patient 2, spots 9 and 10 for patient 3, and spot 11 for patient 4 were detected.
In general terms: Immunoblotting shows a protein as a band on a membrane.

[3] abbreviates: serum of egg-allergic patient 3.

Regarding RFREDKEE, the “binding activity against IgE antibodies by ELISA” value in test [1] is “patient-specific binding activity was able to be confirmed”.
Take RGREDKMK: in test [1], the “binding activity against IgE antibodies by ELISA” value is listed as “patient-specific binding activity was able to be confirmed”.

B1: vitellogenin-3 (protein)
chain: SIIENLKARCSVSQNMITTFNGVEFNYSMPANCYHILAQDCSPELKFLVMMKRLGESADLTAISVRLASHEVDMYVSNGLIQLKINGVQTPTDVPYTSKSGLLISSEKEGLSLKAPEYGVEKLYYDRRKLEIRVAFWMVGKTCGICGKYDAEKKREYQMPSGYLAKDAVSFAQSWVISEDTCTGACKLQRKFVKIEKPVAFNKKASKCFSIEPVLRCAEGCSATRTVPVSVGFHCVPSDSTLELEEEQVRLDQKSEDLVSRVDAHTACSCAQQLCSA
On to B1, for which the “specific reaction/binding of serum IgE with spot in immunoblot” value in test [2] was “specifically reacted”.

B2: Spot 3: Central sequence of vitellogenin-1, or C-terminal portion (SEQ ID NO: 18) of lipovitellin-1 (protein)
chain: DKPFASGYLKMFGQELLFGRLDKDTLQNVLQVWYGPDEKIPSIRRLISSLQTGIGRQWTKALLLSEIRCIVPTCVGFPMETSFYYSSVTKVAGNVQAQITPSPRSDFRLTELLNSNVRLRSKMSLSMAKHMTFVIGINTNMIQAGLEAHTKVNAHVPVNVVATIQMKEKSIKAEIPPCKEETNLIIVSSKTFAVTRNIEDLAASKMTPVLLPEAVPDIMKMSFDSDSASGETDNIRDRQSVEDVSSGNSFSFGHPSSGKEPFIQSMCSNASTFGVQVCIEKKSVHAAFIRNVPLYNAIGEHALRMSFKPVYSDVPIEKIQVTIQAGDQAPTK
With B2, the “specific reaction/binding of serum IgE with spot in immunoblot” value in test [2] was “specifically reacted”.

B3: Apolipoprotein B precursor [Spot 9] (protein, listed as Gallus gallus)
chain: MGPVRLLLLLLLLSSGVLTQEGTPENGNPGCSKDAARFKSLRKYVYLYEAETSSGITGTADSRSGSKITCKVELEVPQLCQFILRTMHCSLRETFGVDSERRAMLRKSKNSDDFANAMSKHELRFSTQDGTKVKLYPEKDEPLNVLNLKRGIISALLAPTETEENIKTISMDTVYGKCDSEVEFKSRRGSVAEDISINRNLKACDNFSPIRDYVSPVAIVKGLNIPLSTLLSSTQSCHYSIDAKKKHIRDVVCSEKHLFLPSSYKNQYGMMTEVNQTLKLEDNQRMNNRNPDGDELEEKGLALESTDAK
Consider B3, for which the “specific reaction of serum IgE with spot in immunoblot” value (“specific reaction of serum IgE” below) in test [2] (setting [3]) is “specifically reacted; also recorded: detected”.

B4: Vitellogenin-2 precursor (protein, listed as Gallus gallus)
chain: TPVLAAFLHGISNNKKTGGLQLVVYADTDSVRPRVQVFVTNLTDSSKWKLCADASVRNAHKAVAYVKWGWDCRDYKVSTELVTGRFAGHPAAQVKLEWPKVPSNVRSVVEWFYEFVPGAAFMLGFSERMDKNPSRQARMVVALTSPRTCDVVVKLPDIILYQKAVRLPLSLPVGPRIPASELQPPIWNVFAEAPSAVLENLKARCSVSYNKIKTFNEVKFNYSMPANCYHILVQDCSSELKFLVMMK
As to B4, the “specific reaction of serum IgE” value in test [2] (serum of egg-allergic patient 4) was “specifically reacted; also recorded: detected”.

B5: Apolipoprotein B precursor [Spot 10] (protein, listed as Gallus gallus)
chain: LDGSTSLTRKRGLKLATALSLNNNKFLGGSHDNSISLTKKNLEASMITNAKINTPVFKMNFSQELSGNTKSKPTISSGLKVTYDFTTPKHGISAKGGVAHKLALETLTSYLSVETSTKGNIDGAIYTGNSFSGALDHEANTYLHANGVRSSLKLEANSKVDGLWNSEMKEILAVEASTSRVYAVWEHNGKNFARYTPLFTTTGSQKCKATFELAPWTVSADLQIQVTQPNSFLDTASVNQVVLMKVSPTDQKVGWKGEGQIQSLSLRHDMQLSNEKSNAKFDISGSLEGYMDFLKRINCAISKKSLWDILKLDVTTVADRKHYLNASASFIYRKSDDGYFFPMPVIR
In the case of B5, in test [2] (setting [3]), the “specific reaction of serum IgE” value was “specifically reacted; also recorded: detected”.
